This note sets out measurements from US20210380663A1 (ACCELERON PHARMA, published 2021).

Residue numbers refer to the chain shown, from its start. In names and notes the source's numbering stands. Like-named read-outs stand apart in the source and are kept apart here.

Test [1] deals with T1, TGFβ1 (human, UniProt P01137 279-390).
The target in test [2] is T2, TGFβ3 (human, UniProt P10600 301-412).
T2 sequence (looked up): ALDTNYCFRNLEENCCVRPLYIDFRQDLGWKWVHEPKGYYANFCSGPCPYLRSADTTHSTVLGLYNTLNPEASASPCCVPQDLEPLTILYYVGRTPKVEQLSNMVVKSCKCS

Test [3] concerns the target T3, activin A (UniProt P08476 311-426).
T3 sequence (looked up): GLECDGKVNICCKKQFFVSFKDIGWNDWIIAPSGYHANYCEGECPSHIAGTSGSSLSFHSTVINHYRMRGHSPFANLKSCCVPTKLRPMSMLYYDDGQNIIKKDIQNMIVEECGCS

The target in a further test is T4, BMP9 (UniProt Q9UK05).
T4 sequence (looked up): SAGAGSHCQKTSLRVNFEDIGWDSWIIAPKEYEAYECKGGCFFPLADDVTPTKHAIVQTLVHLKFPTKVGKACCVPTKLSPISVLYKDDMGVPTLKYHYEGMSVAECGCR

The target of the next test is T5, BMP10 (UniProt O95393).
T5 sequence (looked up): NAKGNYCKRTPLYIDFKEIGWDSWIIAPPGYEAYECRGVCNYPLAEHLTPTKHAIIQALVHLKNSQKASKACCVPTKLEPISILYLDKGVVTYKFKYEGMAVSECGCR

A further test has as its target GDF8 (UniProt O14793).
In test [4] the target is T1, TGFβ1. The source holds these as a separate data set.
For a further test, the target named is T6, TGFβ2 (human) (UniProt P61812).
T6 sequence (looked up): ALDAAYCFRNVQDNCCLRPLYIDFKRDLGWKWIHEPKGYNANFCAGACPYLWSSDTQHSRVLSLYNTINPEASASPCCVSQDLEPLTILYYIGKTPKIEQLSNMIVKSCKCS

Test [5] addresses T7, GDF11 (UniProt O95390 299-407).
In the next test the target is T8, activin B (UniProt P09529).
T8 sequence (looked up): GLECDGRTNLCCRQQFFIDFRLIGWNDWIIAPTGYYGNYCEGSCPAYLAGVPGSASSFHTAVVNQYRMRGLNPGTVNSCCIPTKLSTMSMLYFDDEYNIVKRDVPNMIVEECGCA

Test [6] concerns the target T2, TGFβ3. The source holds these as a separate data set.
Test [7] concerns the target T3, activin A. The test can be described thus: cell-based or functional assay.
In test [8] the target is T7, GDF11. The test can be described thus: cell-based or functional assay.
Test [9] addresses T1, TGFβ1. The test can be described thus: cell-based or functional assay.
The target of test [10] is T2, TGFβ3. The test can be described thus: cell-based or functional assay.
Test [11] concerns the target T1, TGFβ1. The test can be described thus: cell-based or functional assay. This is another data set of the same source.
In test [12] the target is T2, TGFβ3. The test is described as follows: cell-based or functional assay. This is another data set of the same source.

T7 sequence (O95390 299-407 limits assumed): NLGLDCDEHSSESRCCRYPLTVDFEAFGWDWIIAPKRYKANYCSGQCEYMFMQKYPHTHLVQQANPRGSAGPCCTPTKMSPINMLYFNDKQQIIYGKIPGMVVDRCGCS
T1 sequence (P01137 279-390 limits assumed): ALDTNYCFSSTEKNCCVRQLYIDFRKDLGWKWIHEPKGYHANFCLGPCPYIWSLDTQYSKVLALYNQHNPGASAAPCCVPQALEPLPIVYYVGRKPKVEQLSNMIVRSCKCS

Molecule TGFBRII-(G4S)4-hFc dimer (Fc fusion) registered an IC50; inhibition of TGFβ1 signalling, CAGA12 reporter gene assay in A549 cells in the test with TGFβ1 [1] of 0.143 nM. In the test with TGFβ3 [2], this molecule displayed an IC50; inhibition of TGFβ3 signalling, CAGA12 reporter gene assay in A549 cells of 0.106 nM.

In the test with activin A [3], TβRII-Fc homodimer (Fc fusion) came in with an IC50; inhibition of activin A signalling, CAGA12 reporter gene assay of more than 20 µg/mL. In addition, the IC50; inhibition of BMP9 signalling, CAGA12 reporter gene assay with BMP9 is more than 20 µg/mL. In addition, the IC50; inhibition of BMP10 signalling, CAGA12 reporter gene assay in the test with BMP10 is more than 20 µg/mL. Further, the IC50; inhibition of GDF8 signalling, CAGA12 reporter gene assay with GDF8 is more than 20 µg/mL. Besides, the IC50; inhibition of TGFβ1 signalling, CAGA12 reporter gene assay with TGFβ1 [4] came out at 0.017 nM. Moreover, the IC50; inhibition of TGFβ2 signalling, CAGA12 reporter gene assay with TGFβ2 (human) was more than 20 µg/mL. In addition, in the test with GDF11 [5], the IC50; inhibition of GDF11 signalling, CAGA12 reporter gene assay was more than 20 µg/mL. Further, the IC50; inhibition of activin B signalling, CAGA12 reporter gene assay with activin B is more than 20 µg/mL.

B1: ActRIIB-Fc homodimer (Fc fusion)
ActRIIB-Fc chain: GRGEAETRECIYYNANWELERTNQSGLERCEGEQDKRLHCYASWRNSSGTIELVKKGCWLDDFNCYDRQECVATEENPQVYFCCCEGNFCNERFTHLPEAGGPEVTYEPPPTAPTGGGTHTCPPCPAPELLGGPSVFLFPPKPKDTLMISRTPEVTCVVVDVSHEDPEVKFNWYVDGVEVHNAKTKPREEQYNSTYRVVSVLTVLHQDWLNGKEYKCKVSNKALPVPIEKTISKAKGQPREPQVYTLPPSREEMTKNQVSLTCLVKGFYPSDIAVEWESNGQPENNYKTTPPVLDSDGSFFLYSKLTVDKSRWQQGNVFSCSVMHEALHNHYTQKSLSLSPGK
B1 gave an IC50; inhibition of activin A signalling, CAGA12 reporter gene assay in the test with activin A [3] of 0.05 nM. This molecule also had an IC50; inhibition of BMP9 signalling, CAGA12 reporter gene assay with BMP9 of 2 nM. Besides, the IC50; inhibition of BMP10 signalling, CAGA12 reporter gene assay with BMP10 is 0.556 nM. The molecule further came in with an IC50; inhibition of GDF8 signalling, CAGA12 reporter gene assay in the test with GDF8 of 0.83 nM. In addition, in the test with TGFβ1 [4], the IC50; inhibition of TGFβ1 signalling, CAGA12 reporter gene assay is more than 20 µg/mL. The molecule further showed an IC50; inhibition of TGFβ2 signalling, CAGA12 reporter gene assay in the test with TGFβ2 (human) of more than 20 µg/mL. This molecule gave an IC50; inhibition of GDF11 signalling, CAGA12 reporter gene assay with GDF11 [5] of 0.09 nM. In the test with activin B, this molecule yielded an IC50; inhibition of activin B signalling, CAGA12 reporter gene assay of 0.07 nM. In the test with TGFβ3 [6], this molecule showed an IC50; inhibition of TGFβ3 signalling, CAGA12 reporter gene assay of more than 20 µg/mL. The “IC50; inhibition of activin A signalling, CAGA12 reporter gene assay in A204 cells” value in the test with activin A [7] amounted to 0.079 nM. Besides, the “IC50; inhibition of GDF11 signalling, CAGA12 reporter gene assay in A204 cells” value with GDF11 [8] was 0.135 nM.

B2: ActRIIB-Fc Single-Arm (Fc fusion)
ActRIIB-Fc chain: B1 ActRIIB-Fc chain with V226A, E252K, D295K
Fc chain without receptor domain: SNTKVDKRVTGGGTHTCPPCPAPELLGGPSVFLFPPKPKDTLMISRTPEVTCVVVDVSHEDPEVKFNWYVDGVEVHNAKTKPREEQYNSTYRVVSVLTVLHQDWLNGKEYKCKVSNKALPAPIEKTISKAKGQPREPQVYTLPPSREEMTKNQVSLTCLVKGFYPSDIAVEWESNGQPENNYDTTPPVLDSDGSFFLYSDLTVDKSRWQQGNVFSCSVMHEALHNHYTQKSLSLSPGK
As to B2, the “IC50; inhibition of activin A signalling, CAGA12 reporter gene assay in A204 cells” value with activin A [7] worked out at 1.41 nM. The “IC50; inhibition of GDF11 signalling, CAGA12 reporter gene assay in A204 cells” value with GDF11 [8] amounted to 2.61 nM.

B3: ActRIIB-Fc:TβRII-Fc heterodimer (Fc fusion, not shown: a dimerising Fc or GST)
chain 1: GRGEAETRECIYYNANWELERTNQSGLERCEGEQDKRLHCYASWRNSSGTIELVKKGCWLDDFNCYDRQECVATEENPQVYFCCCEGNFCNERFTHLPEAGGPEVTYEPPPTAPTGGGGSGGGGSGGGGSGGGGS
chain 2: TIPPHVQKSDVEMEAQKDEIICPSCNRTAHPLRHINNDMIVTDNNGAVKFPQLCKFCDVRFSTCDNQKSCMSNCSITSICEKPQEVCVAVWRKNDENITLETVCHDPKLPYHDFILEDAASPKCIMKEKKKPGETFFMCSCSSDECNDNIIFSEEYNTSNPDTGGGGSGGGGSGGGGSGGGGS
On to B3, for which the IC50; inhibition of activin A signalling, CAGA12 reporter gene assay in the test with activin A [3] was determined as 0.85 nM. For the same molecule, in the test with BMP9, the IC50; inhibition of BMP9 signalling, CAGA12 reporter gene assay is more than 20 µg/mL. Further, the IC50; inhibition of BMP10 signalling, CAGA12 reporter gene assay in the test with BMP10 amounted to 1.76 nM. The IC50; inhibition of GDF8 signalling, CAGA12 reporter gene assay with GDF8 turned out to be 8.16 nM. Further, the IC50; inhibition of TGFβ1 signalling, CAGA12 reporter gene assay with TGFβ1 [4] is 0.348 nM. In the test with TGFβ2 (human), this molecule registered an IC50; inhibition of TGFβ2 signalling, CAGA12 reporter gene assay of more than 20 µg/mL. In the test with GDF11 [5], the IC50; inhibition of GDF11 signalling, CAGA12 reporter gene assay turned out to be 1.73 nM. The molecule further returned an IC50; inhibition of activin B signalling, CAGA12 reporter gene assay with activin B of 0.64 nM. This molecule also had an IC50; inhibition of TGFβ3 signalling, CAGA12 reporter gene assay with TGFβ3 [6] of 0.31 nM.

B4: Fc1-(G4S)4G-TGFBRII, homodimer (Fc fusion)
chain: GASNTKVDKRVTGGGTHTCPPCPAPELLGGPSVFLFPPKPKDTLMISRTPEVTCVVVDVSHEDPEVKFNWYVDGVEVHNAKTKPREEQYNSTYRVVSVLTVLHQDWLNGKEYKCKVSNKALPAPIEKTISKAKGQPREPQVCTLPPSREEMTKNQVSLSCAVKGFYPSDIAVEWESNGQPENNYKTTPPVLDSDGSFFLVSKLTVDKSRWQQGNVFSCSVMHEALHNHYTQKSLSLSPGAGGGGSGGGGSGGGGSGGGGSGTIPPHVQKSDVEMEAQKDEIICPSCNRTAHPLRHINNDMIVTDNNGAVKFPQLCKFCDVRFSTCDNQKSCMSNCSITSICEKPQEVCVAVWRKNDENITLETVCHDPKLPYHDFILEDAASPKCIMKEKKKPGETFFMCSCSSDECNDNIIFSEEYNTSNPD
As for B4, the “CAGA12 reporter gene assay in A549 cells, inhibition relative to the TGFBRII-(G4S)4-hFc homodimer” value with TGFβ1 [9] and with TGFβ3 [10] was approximately 7 fold each time.

B5: ActRIIB-Fc-(G4S)4G-TGFBRII + Fc1-(G4S)4G-TGFBRII (3-arm) (Fc fusion)
ActRIIB-Fc(knob)-(G4S)4G-TGFBRII chain: GASGRGEAETRECIYYNANWELERTNQSGLERCEGEQDKRLHCYASWRNSSGTIELVKKGCWLDDFNCYDRQECVATEENPQVYFCCCEGNFCNERFTHLPEAGGPEVTYEPPPTAPTGGGTHTCPPCPAPELLGGPSVFLFPPKPKDTLMISRTPEVTCVVVDVSHEDPEVKFNWYVDGVEVHNAKTKPREEQYNSTYRVVSVLTVLHQDWLNGKEYKCKVSNKALPAPIEKTISKAKGQPREPQVYTLPPCREEMTKNQVSLWCLVKGFYPSDIAVEWESNGQPENNYKTTPPVLDSDGSFFLYSKLTVDKSRWQQGNVFSCSVMHEALHNHYTQKSLSLSPGAGGGGSGGGGSGGGGSGGGGSGTIPPHVQKSDVEMEAQKDEIICPSCNRTAHPLRHINNDMIVTDNNGAVKFPQLCKFCDVRFSTCDNQKSCMSNCSITSICEKPQEVCVAVWRKNDENITLETVCHDPKLPYHDFILEDAASPKCIMKEKKKPGETFFMCSCSSDECNDNIIFSEEYNTSNPD
Fc1(hole)-(G4S)4G-TGFBRII chain: B4 chain
Regarding B5, the “IC50; inhibition of activin A signalling, CAGA12 reporter gene assay in A204 cells” value with activin A [7] worked out at 2.96 nM. The “IC50; inhibition of TGFβ1 signalling, CAGA12 reporter gene assay in A549 cells” value with TGFβ1 [11] worked out at 0.0201 nM. For the same molecule, the “IC50; inhibition of GDF11 signalling, CAGA12 reporter gene assay in A204 cells” value with GDF11 [8] was determined as 4.4 nM. Besides, the “IC50; inhibition of TGFβ3 signalling, CAGA12 reporter gene assay in A549 cells” value in the test with TGFβ3 [12] came to 0.016 nM.
